# Data from US8349583B2, “Distinguishing cells in a sample by inactivating extracellular enzyme before releasing intracellular enzyme” (priority 2005, dated 2013).
# B1: trypsin (protein, UniProt P00761 9-231, looked up)
# Trypsin: IVGGYTCAANSIPYQVSLNSGSHFCGGSLINSQWVVSAAHCYKSRIQVRLGEHNIDVLEGNEQFINAAKIITHPNFNGNTLDNDIMLIKLSSPATLNSRVATVSLPRSCAAAGTECLISGWGNTKSSGSSYPSLLQCLKAPVLSDSSCKSSYPGQITGNMICVGFLEGGKDSCQGDSGGPVVCNGQLQGIVSWGYGCAQKNKPGVYTKVCNYVNWIQQTIAAN
# B2: proteinase K (protein, UniProt P06873 106-384, looked up)
# Proteinase K: AAQTNAPWGLARISSTSPGTSTYYYDESAGQGSCVYVIDTGIEASHPEFEGRAQMVKTYYYSSRDGNGHGTHCAGTVGSRTYGVAKKTQLFGVKVLDDNGSGQYSTIIAGMDFVASDKNNRNCPKGVVASLSLGGGYSSSVNSAAARLQSSGVMVAVAAGNNNADARNYSPASEPSVCTVGASDRYDRRSSFSNYGSVLDIFGPGTSILSTWIGGSTRSISGTSMATPHVAGLAAYLMTLGKTTAASACRYIADTANKGDLSNIPFGTVNLLAYNNYQA
# notes: protease, 7.5 U/mg, used at 2.5 U/ml
# B3: Papain (protein, UniProt P00784 134-345, looked up)
# Papain: IPEYVDWRQKGAVTPVKNQGSCGSCWAFSAVVTIEGIIKIRTGNLNEYSEQELLDCDRRSYGCNGGYPWSALQLVAQYGIHYRNTYPYEGVQRYCRSREKGPYAAKTDGVRQVQPYNEGALLYSIANQPVSVVLEAAGKDFQLYRGGIFVGPCGNKVDHAVAAVGYGPNYILIKNSWGTGWGENGYIRIKRGTGNSYGVCGLYTSSFYPVKN
# notes: protease, 4 U/mg, used at 10 U/ml
# How the values were obtained:
# [1] = target: bioluminescent system (luciferin/luciferase) (Photinus pyralis, UniProt P08659); assay: Trypsin control: effect of trypsin on the bioluminescent system; type: biochemical
# Description: (§1) Experimental work used adenylate kinase-generated ATP to drive a luciferin/luciferase activity, giving results in RLUs as a quantitative measure of initial ATP levels. All AK assays were performed at pH 7.5, and 37° C. Results of the assay were read at ambient temperature.
# In preliminary experiments, the effect of trypsin on the bioluminescent system was assessed. Samples of trypsin at different concentrations, diluted in Mueller-Hinton (MH^+) broth, were spiked with ATP.
# E. coli [2] = assay: Trypsin digestion of intracellular bacterial AK, E. coli; type: cell-based; settings: for Mean RLU: assayed immediately
# Description: as §1
# (§2) Concentrations of 10^4 and 10^5 cfu/ml E. coli and E. faecalis where spiked into MH broth containing 1000, 200 and 0 (control) U/ml trypsin. These were assayed immediately.
# E. faecalis [3] = assay: Trypsin digestion of intracellular bacterial AK, E. faecalis; type: cell-based; settings: assayed immediately
# Description: as §1, §2
# AK in lysed blood = assay: AK reduction by trypsin over time, saponin-lysed blood; type: biochemical; settings: 10^−3 dilution of lysed blood, 5000, 1000, 200 U/ml trypsin, 37° C., up to 1 hour
# Description: (§3) Purified AK (B. stearothermophilus) or a 10^−3 dilution of saponin-lysed blood was incubated for 1 hour at 37° C. in 5000, 1000, 200 and 0 (control) U/ml trypsin diluted in MH broth (‘trypsin/MH’). Aliquots were assayed at time 0, 15 minutes, 30 minutes and 1 hour.
# [4] = target: Purified AK (B. stearothermophilus) (Geobacillus stearothermophilus, UniProt P27142); assay: AK reduction by trypsin over time, purified bacterial AK; type: biochemical; settings: 5000, 1000, 200 U/ml trypsin, 37° C., up to 1 hour; compared with lysed blood AK
# Description: as §3
# [5] = test system: bacterial adenylate kinase; assay: AK reduction by different proteases over time for different organisms; type: biochemical; settings: 37° C., 10 to 120 minutes; trypsin 1000, papain 10, proteinase K 2.5, chymotrypsin 1 U/ml
# Description: • 1. Bacteria were scraped from plates and inoculated in approximately 20 ml of broth only. These were incubated overnight at 37° C. • 2. 10× stocks of the enzymes were prepared in broth only: • a. 10 mg of 16,000 U/mg Trypsin added to 16 ml of broth to give 10,000 U/ml (10×) stock. • b. 25 mg of 4 U/mg Papain added to 1 ml of broth to give 100 U/ml (10×) stock. • c. 10 mg of 7.5 U/mg proteinase K added to 3 ml of broth to give a 25 U/ml (10×) stock. • d. 10.5 ul of 239 U/ml chymotrypsin added to 239.5 ul of broth to give a 10 U/ml stock. • 3. The inoculums were then centrifuged at approximately 14030 RCF for one hour. • 4. The supernatant was then taken, tested for adenylate kinase activity (described below), and diluted with broth only if needed to give about 10^5 cpm/ml. • 5. The supernatant was then assayed for adenylate kinase activity at time point zero in triplicate and averaged. • 6. 1.5 ml solutions of the supernatants were prepared with the correct concentration of enzyme, or broth for control. These were incubated at 37° C. • 7. Samples were then taken and assayed in triplicate for adenylate kinase activity at 10, 30, 60 and 120 minutes. • 8. The triplicates were averaged, and normalised by dividing by the time point zero average. Adenylate Kinase Assay (AK Only No Cells) • 1. […] added to a cuvette. • 2. 50 μl of reagent 1 (ADP only; no lysis agent) added and vortexed briefly. • 3. After 5 minutes, the cuvette was placed into a luminometer. • 4. 50 μl of reagent 2 (dilution and luciferin/luciferase) firmly added directly to the sample. • 5. RLU read immediately.
# The results are shown in FIG. 19 (S. epidermis), 20 (S. aureus), 21 (E. coli), 22 (E. faecalis), 23 (P. aeruginosa) and 24 (MRSA). Trypsin is still the protease of choice due to its consistency with both Gram +ve and Gram −ve bacteria.
# organisms (11 species) = assay: Effect of trypsin on organisms (bacterial growth); type: cell-based; settings: trypsin 1000 and 200 U/ml, 10^3 cfu/ml, 37° C., 3 hours
# Description: FIGS. 4 to 14 show bacterial growth in the presence of AK. Bacteria were: (4) E. coli; (5) E. faecalis; (6) P. aeruginosa; (7) S. aureus; (8) K. pneumoniae; (9) E. cloacae; (10) K. oxytoca; (11) P. vulgaris; (12) A. baumanii; (13) S. enteritidis; and (14) S. narcescens.
# To assess whether trypsin affects bacterial growth, 10^3 cfu/ml organisms were spiked into 1000, 200 and 0 (control) U/ml trypsin/MH samples. These mixtures were incubated at 37° C. for 3 hours, and aliquots were assayed at time 0, 1, 2 and 3 hours.
# [6] = test system: AK in saponin-lysed blood; assay: Trypsin digestion of AK in various concentrations of lysed blood; type: biochemical; settings: 1000 U/ml trypsin
# Description: Saponin-lysed blood was serially diluted and mixed with 1000 or 200 U/ml trypsin/MH. The mixtures were incubated at 37° C. for 4 hours, and aliquots assayed at time 0, 1, 2, 3 and 4 hours.
# [7] = test system: lysed blood AK background; assay: Lysed blood background with trypsin, negative (no organisms); type: biochemical; settings: 10^−1 lysed blood, 1000 U/ml trypsin
# Description: (§4) Approximately 10^2 cfu/ml organisms were spiked into a 10^−1 dilution of lysed blood in MH, containing 1000 U/ml trypsin. This was incubated at 37° C. for 4 hours, and aliquots were assayed at time 0, 1, 2, 3 and 4 hours.
# E. coli [8] = assay: Organism growth against lysed blood background using trypsin, E. coli; type: cell-based; settings: E. coli 10^2 cfu/ml, 10^−1 lysed blood, 1000 U/ml trypsin
# Description: as §4
# P. aeruginosa = assay: Organism growth against lysed blood background using trypsin, P. aeruginosa; type: cell-based; settings: P. aeruginosa 10^2 cfu/ml, 10^−1 lysed blood, 1000 U/ml trypsin
# Description: as §4
# E. faecalis [9] = assay: Organism growth against lysed blood background using trypsin, E. faecalis; type: cell-based; settings: E. faecalis 10^2 cfu/ml, 10^−1 lysed blood, 1000 U/ml trypsin
# Description: as §4
# Chain of bioluminescent system (luciferin/luciferase) (P08659 whole entry): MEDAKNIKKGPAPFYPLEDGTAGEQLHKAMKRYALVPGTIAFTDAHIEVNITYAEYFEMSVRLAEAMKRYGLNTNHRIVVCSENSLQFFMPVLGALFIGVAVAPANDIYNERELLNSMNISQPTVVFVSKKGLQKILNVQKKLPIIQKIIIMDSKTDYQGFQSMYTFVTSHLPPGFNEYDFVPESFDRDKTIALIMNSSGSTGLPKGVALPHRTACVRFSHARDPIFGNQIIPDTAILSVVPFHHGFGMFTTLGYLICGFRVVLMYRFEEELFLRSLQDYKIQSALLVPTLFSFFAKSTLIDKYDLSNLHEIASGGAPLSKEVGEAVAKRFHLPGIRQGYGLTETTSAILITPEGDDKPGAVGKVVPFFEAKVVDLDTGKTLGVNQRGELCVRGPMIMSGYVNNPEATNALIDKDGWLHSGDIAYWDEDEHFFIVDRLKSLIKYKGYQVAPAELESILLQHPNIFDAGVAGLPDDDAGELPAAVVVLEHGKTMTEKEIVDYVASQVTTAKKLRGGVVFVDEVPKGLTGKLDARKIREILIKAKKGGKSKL
# Chain of Purified AK (B. stearothermophilus) (P27142 whole entry): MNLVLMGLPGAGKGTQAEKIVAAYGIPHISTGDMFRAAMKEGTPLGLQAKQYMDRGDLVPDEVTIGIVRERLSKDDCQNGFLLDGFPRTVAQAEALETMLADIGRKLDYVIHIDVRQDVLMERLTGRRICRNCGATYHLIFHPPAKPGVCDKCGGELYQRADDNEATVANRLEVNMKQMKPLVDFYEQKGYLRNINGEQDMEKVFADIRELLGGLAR
molecule,measurement,setting,value
B1,Mean RLU,"[1]; +ATP, trypsin 200 U/ml in MH broth","68,036 RLU"
same,Mean RLU,"[1]; +ATP, trypsin 1000 U/ml in MH broth","64,005 RLU"
same,Mean RLU,"[1]; +ATP, trypsin 5000 U/ml in MH broth","81,276 RLU"
same,Mean RLU,"[1]; No ATP, trypsin 200 U/ml in MH broth",646 RLU
same,Mean RLU,"[1]; No ATP, trypsin 1000 U/ml in MH broth",538 RLU
same,Mean RLU,"[1]; No ATP, trypsin 5000 U/ml in MH broth",414 RLU
same,background ATP-generating activity associated with trypsin,[1]; no ATP,little or no background ATP-generating activity
same,effect on bioluminescence signal,[1]; trypsin 5000 U/ml,boosted
same,effect on the bioluminescence reaction,[1]; trypsin levels ≦1000 U/ml,minimal/no effect on the bioluminescence reaction
same,Mean RLU,"E. coli [2]; E. coli 10^4 cfu/ml, trypsin 200 U/ml","7,197 RLU"
same,Mean RLU,"E. coli [2]; E. coli 10^4 cfu/ml, trypsin 1000 U/ml","12,694 RLU"
same,Mean RLU,"E. coli [2]; E. coli 10^5 cfu/ml, trypsin 200 U/ml","65,452 RLU"
same,Mean RLU,"E. coli [2]; E. coli 10^5 cfu/ml, trypsin 1000 U/ml","106,552 RLU"
same,AK signal from lysed bacteria lost during the AK reaction due to trypsin digestion,"E. coli [2]; E. coli and E. faecalis, trypsin 200 and 1000 U/ml",10-20%
same,Mean RLU,"E. faecalis [3]; E. faecalis 10^4 cfu/ml, trypsin 200 U/ml","13,310 RLU"
same,Mean RLU,"E. faecalis [3]; E. faecalis 10^4 cfu/ml, trypsin 1000 U/ml","17,369 RLU"
same,Mean RLU,"E. faecalis [3]; E. faecalis 10^5 cfu/ml, trypsin 200 U/ml","87,059 RLU"
same,Mean RLU,"E. faecalis [3]; E. faecalis 10^5 cfu/ml, trypsin 1000 U/ml","103,959 RLU"
same,digestion of AK in lysed blood by trypsin,AK in lysed blood,digested rapidly
same,degradation of purified bacterial AK by trypsin,[4],does not occur as dramatically or rapidly as the AK from lysed blood
same,degradation of AK extracted from different organisms,[5],degraded the AK
same,effect on bacterial growth,organisms (11 species),minimal (if any) effect on the organisms
same,reduction of background,"[6]; 10^−1 dilution of blood, 4 hours","25,000 fold"
same,background RLU after trypsin digestion,"[6]; 10^−1 dilution of blood, 4 hours, from approximately 100 million RLU","4,000 RLU"
same,time in which the vast majority of AK digestion occurs,[6],≤ 2 h
same,Mean RLU,[7]; 1 hr,"7,864 RLU"
same,Mean RLU,[7]; 2 hrs,"3,148 RLU"
same,Mean RLU,[7]; 3 hrs,"2,001 RLU"
same,Mean RLU,[7]; 4 hrs,"1,572 RLU"
same,Mean RLU,[7]; Time 0,overload
same,Mean RLU,E. coli [8]; 1 hr,"9,605 RLU"
same,Mean RLU,E. coli [8]; 2 hrs,"7,460 RLU"
same,Mean RLU,E. coli [8]; 3 hrs,"41,121 RLU"
same,Mean RLU,E. coli [8]; 4 hrs,"353,541 RLU"
same,Mean RLU,E. coli [8]; Time 0,overload
same,Mean RLU,P. aeruginosa; 1 hr,"8,852 RLU"
same,Mean RLU,P. aeruginosa; 2 hrs,"3,582 RLU"
same,Mean RLU,P. aeruginosa; 3 hrs,"3,332 RLU"
same,Mean RLU,P. aeruginosa; 4 hrs,"8,123 RLU"
same,Mean RLU,P. aeruginosa; Time 0,overload
same,Mean RLU,E. faecalis [9]; 1 hr,"10,099 RLU"
same,Mean RLU,E. faecalis [9]; 2 hrs,"4,939 RLU"
same,Mean RLU,E. faecalis [9]; 3 hrs,"15,587 RLU"
same,Mean RLU,E. faecalis [9]; 4 hrs,"106,762 RLU"
same,Mean RLU,E. faecalis [9]; Time 0,overload
B2,degradation of AK extracted from different organisms,[5],degraded the AK in a similar manner to trypsin
B3,degradation of AK extracted from different organisms,[5],degraded the AK in a similar manner to trypsin
